Legend:
[1] = target: GST-fused human V158 FcγRIIIa (extracellular region) (human) (UniProt P08637); assay: AlphaScreen competition vs biotin-WT AC10
[2] = target: GST-fused human V158 FcγRIIIa (extracellular region) (human) (UniProt P08637); assay: SPR, GST-FcγRIIIa V158 on chip

Sequence of GST-fused human V158 FcγRIIIa (extracellular region) (human) (P08637 17-208 F176V): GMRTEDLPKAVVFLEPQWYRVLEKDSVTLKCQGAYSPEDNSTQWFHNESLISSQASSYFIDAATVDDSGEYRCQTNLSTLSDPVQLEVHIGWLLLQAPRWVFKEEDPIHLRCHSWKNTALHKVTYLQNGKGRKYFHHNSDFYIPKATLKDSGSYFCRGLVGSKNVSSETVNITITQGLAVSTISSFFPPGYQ

IC50 [1]: 87.2 nM | Kd [2]: 18.6 nM
Substance: AC10 WT (H0/L0) full length antibody
